Laboratory results taken from FireProtDB (doi:10.1021/bi991422s).

Conditions: Aspergillus oryzae (strain ATCC 42149 / RIB 40), pH 7, DSC, MOPS 30 mM, reversible: yes, whole UniProt chain shown; for denaturant m value / denaturant midpoint (higher = more stable) / unfolding free energy: Urea

B1: Guanyl-specific ribonuclease T1 wild type, P00651 (protein)
chain: MMYSKLLTLTTLLLPTALALPSLVERACDYTCGSNCYSSSDVSTAQAAGYQLHEDGETVGSNSYPHKYNNYEGFDFSVSSPYYEWPILSSGDVYSGGSPGADRVVFNENNQLAGVITHTGASGNNFVECT
- denaturant m value (5 °C): 1.18 kcal/mol/M
- denaturant midpoint (higher = more stable) (5 °C): 7.04 M
- unfolding free energy (5 °C): 8.32 kcal/mol
- denaturant m value (10 °C): 1.18 kcal/mol/M
- denaturant midpoint (higher = more stable) (10 °C): 6.7 M
- unfolding free energy (10 °C): 7.87 kcal/mol
- denaturant m value (15 °C): 1.14 kcal/mol/M
- denaturant midpoint (higher = more stable) (15 °C): 6.43 M
- unfolding free energy (15 °C): 7.34 kcal/mol
- denaturant m value (20 °C): 1.18 kcal/mol/M
- denaturant midpoint (higher = more stable) (20 °C): 5.71 M
- unfolding free energy (20 °C): 6.72 kcal/mol
- denaturant m value (25 °C): 1.17 kcal/mol/M
- denaturant midpoint (higher = more stable) (25 °C): 5.2 M
- unfolding free energy (25 °C): 6.09 kcal/mol
- Tm (Thermal): 50.8 °C
- unfolding enthalpy (calorimetric) (Thermal): 96.6 kcal/mol
